# Reference: patent US20240010721A1 (HARBOUR BIOMED SHANGHAI, published 2024)
# Where a chain is given by its changes, count along the chain named. Names may count otherwise.
# B1: PR002562 (antibody, human IgG1, kappa, V domains shown)
# VH: QVQLVQSGGGVVQPGRSLRLSCAASGFTFSSYGMHWVRQAPGKGLEWVAIMWYDGSDKDYADSVKGRFTISRDTSKNTLYLQMNSLRAEDTAVYYCAREQARSFDLWGRGTLVTVSS
# VL: DIVMTQSPSSLSASVGDRVTITCRASQTINNWLAWYQQKPGKAPKLLIYKASSLESGVPSRFSGSGSGTEFTLTISSLQPDDFATYYCQQYQSYSPMYTFGQGTKVEIKR
# notes: PR001354 variant: VL N92Q; hIgG1; also called anti-ROR1 1015M2-C9(L: N92Q) hIgG1
# B2: PR002568 (antibody, human IgG1, kappa, V domains shown)
# VH: B1 VH with G55A
# VL: B1 VL
# notes: PR001354 variant: VH G55A, VL N92Q; hIgG1; also called anti-ROR1 1015M2-C9(H: G55A; L: N92Q) hIgG1
# B3: PR002572 (antibody, human IgG1, kappa, V domains shown)
# VH: B1 VH with Q1E, V5L, Q6E, Y32F, I50V, M51I
# VL: B1 VL with S10T
# notes: PR001364 variant: VL N92Q; hIgG1; also called anti-ROR1 1015M3-D8(L: N92Q) hIgG1
# B4: PR002567 (antibody, human IgG1, kappa, V domains shown)
# VH: B1 VH with G55A
# VL: B1 VL with Q92N
# notes: PR001354 variant: VH G55A; hIgG1; also called anti-ROR1 1015M2-C9(H: G55A) hIgG1
# B5: PR002565 (antibody, human IgG1, kappa, V domains shown)
# VH: B1 VH with D54E
# VL: B1 VL
# notes: PR001354 variant: VH D54E, VL N92Q; hIgG1; also called anti-ROR1 1015M2-C9(H: D54E; L: N92Q) hIgG1
# B6: PR002566 (antibody, human IgG1, kappa, V domains shown)
# VH: B1 VH with D54E
# VL: B1 VL with Q92N, S93A
# notes: PR001354 variant: VH D54E, VL S93A; hIgG1; also called anti-ROR1 1015M2-C9(H: D54E; L: S93A) hIgG1
# B7: PR002573 (antibody, human IgG1, kappa, V domains shown)
# VH: B1 VH with Q1E, V5L, Q6E, Y32F, I50V, M51I
# VL: B1 VL with S10T, Q92N, S93A
# notes: PR001364 variant: VL S93A; hIgG1; also called anti-ROR1 1015M3-D8(L: S93A) hIgG1
# B8: PR002569 (antibody, human IgG1, kappa, V domains shown)
# VH: B1 VH with G55A
# VL: B1 VL with Q92N, S93A
# notes: PR001354 variant: VH G55A, VL S93A; hIgG1; also called anti-ROR1 1015M2-C9(H: G55A; L: S93A) hIgG1
# B9: PR002564 (antibody, human IgG1, kappa, V domains shown)
# VH: B1 VH with D54E
# VL: B1 VL with Q92N
# notes: PR001354 variant: VH D54E; hIgG1; also called anti-ROR1 1015M2-C9(H: D54E) hIgG1
# B10: PR002570 (antibody, human IgG1, kappa, V domains shown)
# VH: B1 VH with Q6E, I50V, M51A, D54E, S56V, D57S, K58E, T74N, S75A
# VL: B1 VL with S10T, T28S, Q92K
# notes: PR001356 variant: VH D54E; hIgG1; also called anti-ROR1 1015M2-E6(H: D54E) hIgG1
# B11: PR002571 (antibody, human IgG1, kappa, V domains shown)
# VH: B1 VH with Q6E, I50V, M51A, G55A, S56V, D57S, K58E, T74N, S75A
# VL: B1 VL with S10T, T28S, Q92K
# notes: PR001356 variant: VH G55A; hIgG1; also called anti-ROR1 1015M2-E6(H: G55A) hIgG1
# B12: PR002563 (antibody, human IgG1, kappa, V domains shown)
# VH: B1 VH
# VL: B1 VL with Q92N, S93A
# notes: PR001354 variant: VL S93A; hIgG1; also called anti-ROR1 1015M2-C9(L: S93A) hIgG1
# B13: PR002574 (antibody, human IgG1, kappa, V domains shown)
# VH: B1 VH with Q1E, V5L, Q6E, Y32F, I50V, M51I, D54E
# VL: B1 VL with S10T, Q92N
# notes: PR001364 variant: VH D54E; hIgG1; also called anti-ROR1 1015M3-D8(H: D54E) hIgG1
# Biological target: ROR1 (antigen of the KD determination and of the Octet dissociation measurement) (UniProt Q01973 30-403, limits assumed)
# Assay: Octet, antigen form not stated
# Sequence of ROR1 (antigen of the KD determination and of the Octet dissociation measurement) (Q01973 30-403 limits assumed): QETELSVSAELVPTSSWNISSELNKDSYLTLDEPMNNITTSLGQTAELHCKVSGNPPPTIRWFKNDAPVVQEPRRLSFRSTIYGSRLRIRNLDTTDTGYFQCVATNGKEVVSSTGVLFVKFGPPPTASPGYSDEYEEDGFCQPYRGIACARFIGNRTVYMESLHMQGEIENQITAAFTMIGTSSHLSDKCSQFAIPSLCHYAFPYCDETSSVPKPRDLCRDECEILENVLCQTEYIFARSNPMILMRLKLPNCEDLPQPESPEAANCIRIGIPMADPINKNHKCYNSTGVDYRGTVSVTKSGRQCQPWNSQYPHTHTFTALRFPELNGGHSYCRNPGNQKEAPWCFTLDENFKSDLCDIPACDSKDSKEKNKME
Binder,Response,koff [s⁻¹]
B1,0.629,0.000162
B2,0.702,0.00014
B3,0.606,0.000104
B4,0.707,0.000215
B5,0.595,0.000106
B6,0.663,0.000135
B7,0.723,8.84e-05
B8,0.614,0.000207
B9,0.748,0.000108
B10,0.472,0.00108
B11,0.638,0.000113
B12,0.757,0.000122
B13,0.485,0.000172

# Biological target: T1, human ROR1 (hROR1) on cells (human, UniProt Q01973 30-937)
# T1 construct: whole, on cells; the cell line is named under assay; also called HEK293T-hROR1; 293T-hROR1
# Assay: FACS, HEK293T-hROR1 cells; further: test concentration or dose not given here
# T1 sequence (Q01973 30-937): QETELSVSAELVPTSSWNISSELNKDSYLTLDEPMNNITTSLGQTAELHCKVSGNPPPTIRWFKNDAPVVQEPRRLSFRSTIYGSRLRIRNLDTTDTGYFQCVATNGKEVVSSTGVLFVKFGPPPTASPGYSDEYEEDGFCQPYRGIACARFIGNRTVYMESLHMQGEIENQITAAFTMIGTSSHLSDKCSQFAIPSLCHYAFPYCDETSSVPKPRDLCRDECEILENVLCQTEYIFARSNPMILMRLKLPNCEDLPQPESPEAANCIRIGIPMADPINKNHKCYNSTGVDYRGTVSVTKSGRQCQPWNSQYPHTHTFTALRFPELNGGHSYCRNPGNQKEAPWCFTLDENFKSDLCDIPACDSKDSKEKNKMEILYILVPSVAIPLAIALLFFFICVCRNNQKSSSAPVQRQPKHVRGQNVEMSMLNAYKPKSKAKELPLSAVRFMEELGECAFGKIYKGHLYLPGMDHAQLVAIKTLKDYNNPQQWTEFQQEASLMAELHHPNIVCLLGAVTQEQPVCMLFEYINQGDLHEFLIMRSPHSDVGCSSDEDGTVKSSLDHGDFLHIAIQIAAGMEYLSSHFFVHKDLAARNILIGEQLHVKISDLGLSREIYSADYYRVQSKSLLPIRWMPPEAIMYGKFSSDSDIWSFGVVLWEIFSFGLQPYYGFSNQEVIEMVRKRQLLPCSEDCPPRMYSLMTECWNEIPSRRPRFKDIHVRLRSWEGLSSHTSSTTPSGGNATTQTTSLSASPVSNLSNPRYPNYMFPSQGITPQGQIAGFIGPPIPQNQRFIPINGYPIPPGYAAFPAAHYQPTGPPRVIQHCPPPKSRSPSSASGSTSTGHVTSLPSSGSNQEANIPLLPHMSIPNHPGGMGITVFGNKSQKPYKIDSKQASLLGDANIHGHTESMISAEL
row,Binder,MFI [MFI]
1,B1,43900
2,B2,46300
3,B3,43000
4,B4,41900
5,B5,46900
6,B6,43300
7,B7,37200
8,B8,34500
9,B9,43200
10,B10,43100
11,B11,49600
12,B12,43800
13,B13,45300

# Biological target: T1, human ROR1 (hROR1) on cells
# Assay: FACS, Panc-1 cells; further: test concentration or dose not given here
row,Binder,MFI [MFI]
1,B1,5600
2,B2,3620
3,B3,3930
4,B4,7030
5,B5,6820
6,B6,4630
7,B7,3710
8,B8,3760
9,B9,6590
10,B10,3660
11,B11,4560
12,B12,5020
13,B13,5870
